The results in this text go back to paper PMC8727753, “Engineering of Reductive Aminases for Asymmetric Synthesis of Enantiopure Rasagiline” (Frontiers in Bioengineering and Biotechnology, 2021).

Data set [1] has as its system T1, O=C1CCc2ccccc21.
T1 construct: dimer in homology model
Nature of the data set: purified protein. It is filed as biochemical, Aspergillus calidoustus. The settings on record: 20 mM propargylamine, 0.2 mM NADPH, 1% DMSO, 100 mM Tris-HCl pH 9.0.

Substrate in data set [2]: O=C1CCc2ccccc21
Nature of the data set: purified protein. It is filed as biochemical, Aspergillus calidoustus. The settings on record: 20 mM propargylamine, 0.2 mM NADPH, 1% DMSO, 100 mM Tris-HCl pH 9.0.

What is called Km is the substrate concentration at which the rate is half of its maximum. As a reminder, the kcat is the maximal rate divided by the concentration of active sites. As a reminder, the kcat/Km is the turnover number divided by the Michaelis constant. Regarding “AcRedAm (Aspergillus calidoustus; Q237G)”, in data set [1], the Km amounted to 4 ± 1 µM, the kcat is 0.002 ± 0.001 s⁻¹ and the kcat/Km stood at 500 ± 30 M⁻¹ s⁻¹.

On to “AcRedAm (Aspergillus calidoustus; W207S/Y214C)”, for which, in data set [1], the Km worked out at 21 ± 4 µM, the kcat was found to be 0.026 ± 0.002 s⁻¹ and the kcat/Km came to 1240 ± 26 M⁻¹ s⁻¹.

Turning to “AcRedAm (Aspergillus calidoustus; Y214M)”, in data set [1], the Km came out at 12 ± 4 µM, the kcat stood at 0.014 ± 0.002 s⁻¹ and the catalytic efficiency (kcat/Km) was found to be 1170 ± 21 M⁻¹ s⁻¹.

With “AcRedAm (Aspergillus calidoustus; W207C)”, in data set [1], the Km turned out to be 18 ± 2 µM, the kcat is 0.022 ± 0.001 s⁻¹ and the kcat/Km was determined as 1220 ± 44 M⁻¹ s⁻¹.

As for “AcRedAm (Aspergillus calidoustus; Q237A)”, in data set [1], the Km came out at 9 ± 1 µM, the kcat was determined as 0.007 ± 0.001 s⁻¹ and the kcat/Km came to 778 ± 21 M⁻¹ s⁻¹.

B1: AcRedAm (Aspergillus calidoustus) (protein)
chain: MSTITLFGLGAMGKALAAKYIEKGYTTTIWNRTPSKAAPLVEKGAKLANTVGEGLASADLIILCLLDNASVRQTLDQATAALNGKTVINLTNGTPSQARETSEWVISHGAQYIHGGIMAVPDMIGSPHAVLLYSGESAETFSRVEAHLSHLGTSKFLGTDPGSASLHDLALLSGMYGLFSGFFHATALVKSQPGTTATGFVQLLTPWLSAMTHYLGALAKQIDEGDYATQGSNMAMQVTGVQNIVRASEEAGVTADLIMPILGRMTRAAEAGYADVDVSAVIEFMKE
notes: dimer in homology model
Consider B1, for which, in data set [2], the Km turned out to be 16 ± 4 µM, the kcat was 0.017 ± 0.001 s⁻¹ and the kcat/Km was 1060 ± 41 M⁻¹ s⁻¹.
